Data: article PMC4797294

Biological target: T1, pVIc-TMR (UniProt P03274 240-250)
T1 chain: GVQSLKRRRCF
Experiment: fluorescence polarization

B1: 30 bp dsDNA (dsDNA)
DNA 1: GACGACTAGGACGACGACGAGGATGACGAC
DNA 2: GTCGTCATCCTCGTCGTCGTCCTAGTCGTC
- Kd: 262 ± 88 nM
